Source: patent US20090263792A1, “ATOPIC DERMATITIS MARKER AND TECHNIQUE OF USING THE SAME” (FANCL CORPORATION, priority 2005, published 2009)

Experiments:
[1] = tested on: NC/Nga mice modeling atopic dermatitis; assay: Haptene (DNFB) treatment of mice modeling atopic dermatitis, observation of skin inflammation; format: in vivo, mouse; settings: haptene (0.1% DNFB, once a week, 4 weeks) applied; lactoferrin 1 μg/ml in drinking water; compared to haptene-treated mice not given lactoferrin
Method: (§1) Six-week-old male mice (NC/Nga mice) modeling atopic dermatitis were obtained (NC/Nga slc, Sankyo Labo Service Corporation) and raised under conventional conditions. […] In view of the above, a 0.1% DNFB solution (haptene) was applied to the skin of the mice on both ears as well as the right and left sides of the back once a week for a total of 4 weeks.
(§2) To relieve inflammation caused by atopic dermatitis, lactoferrin was dissolved in drinking water at 1 μg/ml and administered.
(§3) Three mice were tested under each of the following experimental conditions: (1) haptene (−)/lactoferrin (−), (2) haptene (−)/lactoferrin (+), (3) haptene (+)/lactoferrin (−), and (4) haptene (+)/lactoferrin (+).
When raised with haptene treatment in a conventional environment, the mice (NC/Nga mice) modeling atopic dermatitis used in this study developed a macroscopically noticeable dermatitis very similar to atopic dermatitis after 4 weeks of haptene treatment. In this study, the mice were fed with drinking water mixed with lactoferrin, a substance shown to be effective on atopic dermatitis (a protein with a molecular weight of 80,000 found in saliva and blood and bonding with Fe ions).

[2] = tested on: skin tissues of NC/Nga mice modeling atopic dermatitis; assay: Western blotting of protein expression in skin tissues of mice modeling atopic dermatitis; format: in vivo, mouse
Method: as §1, §2, §3
Skin tissues were cut out from mice treated with haptene/lactoferrin for 4 weeks and the tissue strips were cut into small pieces with a knife, after which the tissue pieces were transferred into a centrifugal tube whose tare weight had been measured beforehand, to measure the tissue weight. Different buffers were added by different amounts, such as tissue weight×0.85 mg Urea, tissue weight×0.1 μl 1.5% SDS, tissue weight×0.1 μl 8.5% Triton X-100, and tissue weight×0.05 μl 2-ME, and homogenized using a HG30 homogenizer (Hitachi, Ltd.). […] Protein content was quantified using the dot blotting method.
SDS-PAGE was performed with a Laemmli Tris-Glycin system using a Western blotting sample. […] If HRP labeled anti-mouse IgG (Amersham Bioscience, Inc.) (1:1000 dilution), HRP labeled anti-rabbit IgG (Amersham Bioscience, Inc.) (1:1000 dilution), HRP labeled anti-rat IgG (Amersham Bioscience, Inc.) (1:1000 dilution) or HRP labeled anti-goat IgG (Santa Cruz Biotechnology, Inc.) (1:1000 dilution) was used as the secondary antibody, an enhanced chemiluminescence (ECL) kit (Amersham Bioscience, Inc.) was used to implement detection by means of fluorescence color development. […]

B1: lactoferrin (protein, UniProt P02788 20-710, looked up)
Lactotransferrin: GRRRSVQWCAVSQPEATKCFQWQRNMRKVRGPPVSCIKRDSPIQCIQAIAENRADAVTLDGGFIYEAGLAPYKLRPVAAEVYGTERQPRTHYYAVAVVKKGGSFQLNELQGLKSCHTGLRRTAGWNVPIGTLRPFLNWTGPPEPIEAAVARFFSASCVPGADKGQFPNLCRLCAGTGENKCAFSSQEPYFSYSGAFKCLRDGAGDVAFIRESTVFEDLSDEAERDEYELLCPDNTRKPVDKFKDCHLARVPSHAVVARSVNGKEDAIWNLLRQAQEKFGKDKSPKFQLFGSPSGQKDLLFKDSAIGFSRVPPRIDSGLYLGSGYFTAIQNLRKSEEEVAARRARVVWCAVGEQELRKCNQWSGLSEGSVTCSSASTTEDCIALVLKGEADAMSLDGGYVYTAGKCGLVPVLAENYKSQQSSDPDPNCVDRPVEGYLAVAVVRRSDTSLTWNSVKGKKSCHTAVDRTAGWNIPMGLLFNQTGSCKFDEYFSQSCAPGSDPRSNLCALCIGDEQGENKCVPNSNERYYGYTGAFRCLAENAGDVAFVKDVTVLQNTDGNNNEAWAKDLKLADFALLCLDGKRKPVTEARSCHLAMAPNHAVVSRMDKVERLKQVLLHQQAKFGRNGSDCPDKFCLFQSETKNLLFNDNTECLARLHGKTTYEKYLGPQYVAGITNLKKCSTSPLLEACEFLRK
notes: a protein with a molecular weight of 80,000 found in saliva and blood and bonding with Fe ions
B1 was tested, and the “inflammation on the back (skin condition, FIG. 1)” value [1] was “less inflammation”, the “amount of expression of Annexin II, Enolase 1 and PARK7 (all other than FABP-4) (FIG. 5)” value ([2]; haptene-treated mice also given lactoferrin, to a level close to non-haptene-treated control mice) was “recovered” and the “amounts of expression of Galectin-1, -4, -7 and -8 (FIG. 3)” value ([2]; haptene-treated mice also given lactoferrin, to levels close to non-haptene-treated control mice) was “recovered”. For the same molecule, the “Moesin, Ezrin and Radixin severed types of low molecular weight (50-kDa), increased by haptene treatment (FIG. 4)” value ([2]; haptene-treated mice, lactoferrin administration) was “did not decrease”.
